T1: nSR100 (Mus musculus, UniProt Q8BKA3)
T1 construct: host or cells: mouse N2A cells
T1 sequence (Q8BKA3 1-608): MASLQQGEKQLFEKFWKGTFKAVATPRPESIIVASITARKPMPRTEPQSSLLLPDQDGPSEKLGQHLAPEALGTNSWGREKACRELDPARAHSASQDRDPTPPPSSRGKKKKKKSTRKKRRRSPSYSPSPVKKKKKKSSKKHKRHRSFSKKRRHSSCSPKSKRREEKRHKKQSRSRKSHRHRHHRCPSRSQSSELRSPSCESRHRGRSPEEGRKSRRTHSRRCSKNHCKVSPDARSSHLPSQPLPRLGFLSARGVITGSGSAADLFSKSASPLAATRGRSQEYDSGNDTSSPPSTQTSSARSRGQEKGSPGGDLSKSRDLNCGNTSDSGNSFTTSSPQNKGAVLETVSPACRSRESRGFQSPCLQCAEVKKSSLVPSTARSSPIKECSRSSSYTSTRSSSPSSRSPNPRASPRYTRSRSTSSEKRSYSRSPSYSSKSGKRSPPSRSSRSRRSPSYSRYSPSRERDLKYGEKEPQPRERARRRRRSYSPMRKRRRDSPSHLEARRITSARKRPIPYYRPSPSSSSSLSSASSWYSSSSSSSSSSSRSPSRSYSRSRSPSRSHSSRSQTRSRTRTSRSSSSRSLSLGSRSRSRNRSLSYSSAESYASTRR

B1: Cyfip1 (protein, UniProt Q7TMB8 1-1253, looked up)
Cytoplasmic FMR1-interacting …: MAAQVTLEDALSNVDLLEELPLPDQQPCIEPPPSSLLYQPNFNTNFEDRNAFVTGIARYIEQATVHSSMNEMLEEGQEYAVMLYTWRSCSRAIPQVKCNEQPNRVEIYEKTVEVLEPEVTKLMNFMYFQRNAIERFCGEVRRLCHAERRKDFVSEAYLITLGKFINMFAVLDELKNMKCSVKNDHSAYKRAAQFLRKMADPQSIQESQNLSMFLANHNKITQSLQQQLEVISGYEELLADIVNLCVDYYENRMYLTPSEKHMLLKVMGFGLYLMDGSVSNIYKLDAKKRINLSKIDKYFKQLQVVPLFGDMQIELARYIKTSAHYEENKSRWTCASSSSSPQYNICEQMIQIREDHMRFISELARYSNSEVVTGSGRQEAQKTDAEYRKLFDLALQGLQLLSQWSAHVMEVYSWKLVHPTDKYSNKDCPDNAEEYERATRYNYTTEEKFALVEVIAMIKGLQVLMGRMESVFNHAIRHTVYAALQDFSQVTLREPLRQAIKKKKNVIQSVLQAIRKTVCDWETGHEPFNDPALRGEKDPKSGFDIKVPRRAVGPSSTQLYMVRTMLESLIADKSGSKKTLRSSLEGPTILDIEKFHRESFFYTHLINFSETLQQCCDLSQLWFREFFLELTMGRRIQFPIEMSMPWILTDHILETKEASMMEYVLYSLDLYNDSAHYALTKFNKQFLYDEIEAEVNLCFDQFVYKLADQIFAYYKVMAGSLLLDKRLRSECKNQGATIHLPPSNRYETLLKQRHVQLLGRSIDLNRLITQRVSAAMYKSLELAIGRFESEDLTSVVELDGLLEINRMTHKLLSRYLTLDSFDAMFREANHNVSAPYGRITLHVFWELNYDFLPNYCYNGSTNRFVRTVLPFSQEFQRDKQPNAQPQYLHGSKALNLAYSSIYGSYRNFVGPPHFQVICRLLGYQGIAVVMEELLKVVKSLLQGTILQYVKTLMEVMPKICRLPRHEYGSPGILEFFHHQLKDIVEYAELKTVCFQNLREVGNAVLFCLLIEQSLSLEEVCDLLHAAPFQNILPRIHVKEGERVDAKMKRLESKYAPLHLVPLIERLGTPQQIAIAREGDLLTKERLCCGLSMFEVILTRIRTFLDDPIWRGPLPSNGVMHVDECVEFHRLWSAMQFVYCIPVGTHEFTVEQCFGDGLHWAGCMIIVLLGQQRRFAVLDFCYHLLKVQKHDGKDEIIKNVPLKKMVERIRKFQILNDEIITILDKYLKSGDGESTPVEHVRCFQPPIHQSLASS
B2: Tpi1 (protein, UniProt P17751 2-249, looked up)
Triosephosphate isomerase: APTRKFFVGGNWKMNGRKKCLGELICTLNAANVPAGTEVVCAPPTAYIDFARQKLDPKIAVAAQNCYKVTNGAFTGEISPGMIKDLGATWVVLGHSERRHVFGESDELIGQKVSHALAEGLGVIACIGEKLDEREAGITEKVVFEQTKVIADNVKDWSKVVLAYEPVWAIGTGKTATPQQAQEVHEKLRGWLKSNVNDGVAQSTRIIYGGSVTGATCKELASQPDVDGFLVGGASLKPEFVDIINAKQ
B3: Cwc27 (protein, UniProt Q3TKY6 2-469, looked up)
Spliceosome-associated …: SNIYIQEPPTNGKVLLKTTAGDIDIELWSKEAPKACRNFIQLCLEAYYDNTIFHRVVPGFIVQGGDPTGTGTGGESIYGAPFKDEFHSRLRFNRRGLVAMANAGPHDNGSQFFFTLGRADELNNKHTIFGKVTGDTVYNMLRLTEVDIDDEERPRNPHRIKSCEVLFNPFDDITPREIKKPKNEKPEEEVKKLKPKGTKNFSLLSFGEEAEEEEEEVNRVSQSMKGRSKSSHDLLKDDPHLSSVPAVESEKDDATGDLEDDGEDDSAERDEYMEDDEKNLMRERIAKRLKKDASASVKSAGDGEKKPASRSEELRKEARQLKRELLAAKQKKETAIKVEEGREEEEAAPDGAVAEYRREKQKYEALRKQQPKKGTSREDQTLALLSQFKSKLTQAITETPENSVPEAEVEDDEGWMSHVLQFEDKTRKVKDASMQDSDTFEIYDPRNPVNKRRREESKKLLREKKERR
B4: Tfip11 (protein, UniProt Q9ERA6 1-838, looked up)
Tuftelin-interacting protein …: MSLSHLYRDGEGHLDDDDDDERENFEITDWDLQNEFNPNRQRHWQTKEEATYGVWAERDSDEERPSFGGKRARDYSAPVNFISAGLKKGAAEEADSEDSDAEEKPVKQEDFPKDLGPKKLKTGGNFKPSQKGFSGGTKSFMDFGSWERHTKGIGQKLLQKMGYVPGRGLGKNAQGIINPIEAKQRKGKGAVGAYGSERTTQSLQDFPVADSEEEAEEEFQKELSQWRKDPSGSKKKPKYSYKTVEELKAKGRVSKKLTAPQKELSQVKVIDMTGREQKVYYSYSQISHKHSVPDEGVPLLAQLPPTAGKEARMPGFALPELEHNLQLLIERTEQEIIQSDRQLQYERDMVVSLSHELEKTAEVLAHEERVISNLSKVLALVEECERRMQPHGADPLTLDECARIFETLQDKYYEEYRLADRADLAVAIVYPLVKDYFKDWHPLEDGSYGTQIISKWKSLLENDQLLSHSSQDLSSDAFHRLMWEVWMPFVRNVVAQWQPRNCEPMVDFLDSWAHIIPVWILDNILDQLIFPKLQKEVDNWNPLTDTVPIHSWIHPWLPLMQARLEPLYSPVRSKLSSALQKWHPSDASAKLILQPWKEVLTPGSWEAFMLRNIVPKLGMCLGELVINPHQQHMDAFYWVMDWEGMISVSSLVGLLEKHFFPKWLQVLCSWLSNSPNYEEITKWYLGWKSMFSDQVLAHPSVKDKFNEALDIMNRAVSSNVGAYMQPGARENIAYLTHTERRKDFQYEAMQERREAENMAQRGIGVAASSVPMNFKDLIETKAEEHNIVFMPVIGKRHEGKQLYTFGRIVIYIDRGVVFVQGEKTWVPTSLQSLIDMAK

One assay addresses T1, nSR100. The experiment in a line: AP-MS nSR100 interaction partners from mouse N2A cells (Table 5). The conditions noted are these: bait Srrm4. Type of assay: binding.
Description: By applying affinity purification coupled to mass-spectrometry (AP-MS), several interaction nSR100 partner proteins were detected that provide insight into mechanisms of post-translational regulation of nSR100 levels.
As to B1, the “AvgP (average of the SAINT scores)” value came to 0.89 and the “MaxP (maximal SAINT score)” value came out at 1.

Take B2: the “AvgP (average of the SAINT scores)” value stood at 0.87 and the “MaxP (maximal SAINT score)” value was found to be 0.87.

In the case of B3, the “AvgP (average of the SAINT scores)” value worked out at 1 and the “MaxP (maximal SAINT score)” value was determined as 1.

For B4, the “AvgP (average of the SAINT scores)” value is 1 and the “MaxP (maximal SAINT score)” value is reported as 1.

The same assay, now with this note: bait Srrm4, 0.1 added to prevent division by 0.
With B1, the “FoldChange between the prey Avg spectra of the bait and control purifications” value (“FoldChange between the prey Avg spectra” below) is given as 5.5.

For B2, the “FoldChange between the prey Avg spectra” value came to 3.33.

As for B3, the “FoldChange between the prey Avg spectra” value worked out at 85.

In the case of B4, the “FoldChange between the prey Avg spectra” value worked out at 40.

The assay is the same for the next values; noted with them: bait Srrm4, 2 replicates.
With B1, the “AvgSpec (average number of spectra per replicate)” value is 11.

Turning to B2, the “AvgSpec (average number of spectra per replicate)” value is on record as 10.

Take B3: the “AvgSpec (average number of spectra per replicate)” value was found to be 8.5.

Consider B4, for which the “AvgSpec (average number of spectra per replicate)” value is on record as 4.

Still in this assay, the particulars now being: bait Srrm4, biological replicate 1 (first number of the cell), AP-MS.
Take B1: the “Spectra (number of spectra for the prey in the purification of the bait)” value is 7.

Turning to B2, the “Spectra (number of spectra for the prey in the purification of the bait)” value was 10|10.

Turning to B3, the “Spectra (number of spectra for the prey in the purification of the bait)” value was 6.

As for B4, the “Spectra (number of spectra for the prey in the purification of the bait)” value is on record as 5.

Still in this assay, the particulars now being: bait Srrm4, biological replicate 2 (second number of the cell), AP-MS.
With B1, the “Spectra (number of spectra for the prey in the purification of the bait)” value is 15.

On to B2, for which the “Spectra (number of spectra for the prey in the purification of the bait)” value is reported as 10|10.

Consider B3, for which the “Spectra (number of spectra for the prey in the purification of the bait)” value was determined as 11.

For B4, the “Spectra (number of spectra for the prey in the purification of the bait)” value came to 3.

Still in this assay, the particulars now being: bait Srrm4, sum of spectra over 2 replicates.
Regarding B1, the SpecSum is 22.

Regarding B2, the SpecSum is 20.

With B3, the SpecSum was found to be 17.

The molecule B4 came in with a SpecSum of 8.

The record behind these values is patent US10772928B2, “Modulation and detection of a neuronal alternative splicing regulatory network for treatment and diagnosis of neurological disorders” (The Governing Council of the University of Toronto, priority 2014, dated 2020).
